# Source: the DeepSol protein solubility set
# Assay: soluble on expression in E. coli; label from the status in PepcDB or PDB records
row,Sequence,soluble on expression in E. coli
1,MGSDKIHHHHHHMTHLKIFLLLIVCALSVLDGKAQTGIALTDELNGKRIGVIGDSYVRNHKEPFENTWHYKFAKKHGMEYFNYGKNGNSIAYSSPRWGKAMYLRYAEMADSLDYVIVIGGHNDAFKLDSIGGIDNFKDKMEILCKGLVEKYPTAKIFFFTRWNCKNFKGSDSEKVVDAMIEVCGNYSIPIFDCARKGSIYADNDTFRRIYFQKSKNNTDTAHLNSKGHDRFLKVAESFLLQY,not soluble
2,MIISTDLQLLISPMQWDQVASEIAQQLSAVGYNVTDIRAEVIDLTCEPDNMLVNQWQQEHGTIPTSEQLHRVVITGEFDGELRKATECVVRQLPEGSYWYGTSLVGEIEPSVTAACAWQADV,not soluble
3,MGSDKIHHHHHHMIFLIFSILFLHLANCDYTPDWESLDNRPLPSWYDDSKFGIFCHWGLYSDDNDKNKKYKTRSEWMWWYWKGTQPDKDVVNFVDKNYKPGTTYADFAKDVCNILLFAIESDFCSLPQSISMRINLLKLYFVFTSKHHEGFTMWPSRTSWNWNSMDIGPKRDIVGELRDAFKKTDVHFGLYFSQFEWFHPMFLDDGKFNTTFYPEQVSYPQMIDIVTKYNPEVVWSDGEWDKSDDYWKAKEFLAWLYNSSPVKDQVVVNDRWGTGTMGKHGGFMTYSDHYDPGKLLEKKWENCMTLDKHSWGNRRDMKASEVNTAYEIIEQLARTIACNGNLLLNVGPNMHGQIPAIFEDRLEEIGRFVNITSEAIFGTRPWIHQNDTSASNVWYVEFQQLSTHVFSGILPNIHRERSH,not soluble
4,MSKHTLIRRAVLEKLESVTGAPVTLFDGLPAFVEQEDLPAIAVWLTDAQYTGLMTDEDDWQATLHTAVFLRAQAPDTELDIWMEEKIFPALEEVSGLERLIDTMTPLGYDYQRDSEMATWGMAEITYRITYTN,soluble
5,MGSDKIHHHHHHMKQNVLLQSILIQLNLLKENYSEDTIKNLMDIPKQLTSNTSYKRNVKEVSHVHIAFDDSTAGCLKHMLGQEERLEEMVVAFSEFFSIGPINKLHMNEGQLARKEWLVNNLTSYDCYFEEEYLPRFKETLEVLHSIPNETPITIWKADNAHEHVGLCFVMAQLKDKKNIRVMNTSEASKEILKLEYVIRGTGELPPENLALIQKSFVKLPYLTVENRMQFEHEWDSLSKSTEFLRIWTDNAVRSVQENYFDQFIIECAKSIGADQEFRKAPRVIGEALGLVEQSVGDTFLEYRLKELIKQEVFEFEGSLDEMRFYSVKLRK,not soluble
6,MNYHVYHSIDVVNGPGTRCTLFVSGCEHNCKGCYNKSTLNPNSGHLFTKELEDKIIADLNDTRIPRRGLSLSGGDPLHPMNCESVLKLVKRVKSECENKDIWMWTGYTLSELNPTQKEIVDLIDTLIDGRFEQDKADPSLDWRGSSNQIIHTFNVLLEHHHHHH,not soluble
7,MAGDPMAEAGNKTQNQSATEVNASPLQPAEYFIYHNLMNDKGLIKTDFSDQPSYLSESLGLWMEFLLSKNDAPHFQDQYQHLTDSFLMSNHLVTWKIQNGQASGTNALIDDMRIMLSLDQAAAKWGRSDYAQTARDIGTSLKTYNMNNGFFTDFYDSQAASKDVTLSYVMPDALAVLKKNGIIDEETEQRNANVLYSAPLKNGFLPKTYSSETKEYTYDSEINLIDQLYAAWHLPEGDEKASVLADWIKQEFQKNGKLYGRYSAYTKEPAVQYESPSVYALAVLFLTKQHENSSVIKAIYDRMNDFEIHDPVKSYYGGYMSGTQTHSFDNLLPLLAERKLFNENIIQLEHHHHHH,soluble
8,GPGSMTLYSIYIFNRYGDNIFYKEWNRTTAPQEGEAGLVAGFIYTLQHFSSQLSSSGEGGFYAVRTPLYKLHYNETMTGYRVALLSDKDLKTDVVQNILRKMFSDVFQRYVTKDPNYSHTQGRVITSTAFGEALDQFFHSQKIL,not soluble
9,MGSDKIHHHHHHMAQHVIEMREITKKFDDFVANDHINLDLRKGEIHALLGENGAGKSTLMNMLAGLLEPTSGSIKINGSAVTIDSPSKSAQLGIGMVHQHFMLVEAFTVTENIILGNEVVKNGILDLKKAGQEIKALSEKYGLAVDPNAKIADISVGAQQRVEILKTLYRGADILIFDEPTAVLTPSEIQELMTIMKSLVKEGKSIILITHKLDEIRSVADRVTVIRRGKSIETVEVSGTTSQDLAEMMVGRSVSFTIEKTPTKPKETILSIKDLVVNENRGIPAIKGLSLEVKAGEIIGIAGIDGNGQSELVQAITGLRKIKSGHLTIKGQDVTKLSTRKITELSVGHVPEDRHRDGLILELTMAENLALQTYYKAPLSHNGVLNYSKINEHGRHLMQEFDVRGANELIPAKGFSGGNQQKAIIAREVDRDPDLLIVSQPTRGLDVGAIEYIHKRLIAERDEGKAVLLVSFELDEILNLSDRIAVIHDGQIQGIVTPETTNKQELGILMAGGSIEREEINV,not soluble
10,MTNVLYQHGTLGTLMAGLLEGTATINELLEHGNLGIATLTGSDGEVIFLDGKAYHANEHKEFIELKGDEKVPYASITNFKASKTFPLQQLSQDDVFAQIKNEMLSENLFSAVKIYGTFKHMHVRMMPAQQPPYTRLIDSARRQPEEKRQDIRGAIVGFFTPELFHGVGSAGFHIHFADDERAYGGHVLDFEVDDVVVEIQNFETFQQHFPVNNETFVKAKIDYKDVAEEIREAE,soluble
11,MGSDKIHHHHHHMEVERISGLKFHKKQDVAIVGAGMTTFKRRLNETGRELSYLAVKQALEEAGLTIDDIEMVVMGSAPDAFDGFHMKGEYLLDGSGGSNRPYMRVFVGGGTGVFAPIAGYWHVASGLADVCLVVCEEKMSSVHPHPQSAFKYIWDPILDRPLNPNLIWIFALEMRRYMHVHNIKHEDIALVSVKNKANALDHPCAQVAEKITVEDVLNSEPMALPVRRLDVSPPSDGAAALIMVAPHIARQLTDNPVWVTGVGWALDTTWWTNRDLYFPRYVAEAAKMAYRMAHITDPRKEIDVAEPYDPFDYKELHHMEGLGLAKKGEAPILTREGVTQRDGDLPTCPSGGLLGVGNPIAATMGVKACEIYWQLAYRAGKRQVAKEVTTGVCQAWGDLMQVGTVMVMSNKR,not soluble
12,MTIPEQNNNPIVEISIPVSTQQALEKVNATKSAWLEARRQQKAAADNIATIRQRRAEMEATTNALNEEWRTLFRESQGVVSKEMKKLRTEIALGRETLEDFDELLAAQESENALLPQEAAELAGKYIHAHDTLVGIRAKQIWEDFMQSHGKALIQTLSLLKSTMGREASAVVGVVHSVNDPDTLLKDFIHKHITRPALTNDAMPEQDPVFKLAGVAPDYAARLDFSNKLSPAAMHKMKVRQERAEKEKAV,soluble
13,ARPAFVNKLWSMVNDKSNEKFIHWSTSGESIVVPNRERFVQEVLPKYFKHSNFASFVRQLNMYGWHKVQDVKSGSMLSNNDSRWEFENERHA,soluble
14,IVGGQECKDGECPWQALLINEENEGFCGGTILSEFYILTAAHCLYQAKRFKVRVGDRNTEQEEGGEAVHEVEVVIKHNRFTKETYDFDIAVLRLKTPITFRMNVAPACLPERDWAESTLMTQKTGIVSGFGRTHEKGRQSTRLKMLEVPYVDRNSCKLSSSFIITQNMFCAGYDTKQEDACQGDSGGPHVTRFKDTYFVTGIVSWGEGCARKGKYGIYTKVTAFLKWIDRSMKTRGLPKAKSHAPEVITSSPLK,soluble
15,SHVEYSRITKFFQEQPLEGYTLFSHRSAPNGFKVAIVLSELGFHYNTIFLDFNLGEHRAPEFVSVNPNARVPALIDHGMDNLSIWESGAILLHLVNKYYKETGNPLLWSDDLADQSQINAWLFFQTSGHAPMIGQALHFRYFHSQKIASAVERYTDEVRRVYGVVEMALAERREALVMELDTENAAAYSAGTTPMSQSRFFDYPVWLVGDKLTIADLAFVPWNNVVDRIGINIKIEFPEVYKWTKHMMRRPAVIKALRGE,soluble
16,MTFSDPMDPSIPIFQHHEEEEAGPSTTIKAEEEDGPCCLVCGRVANTGHHYGVTACLGCKTFFRRVVLQKNSPKCKYKNHCRLEKSVNAKRLCRSCRYQKCLEVGMTEDALHPCRDVIGRRVRNNSSDSSPISSPPSIPTPLSICKLMNLSEGDHKLLQTITDMDTDIRTRTAHILGEPANGNEQIHFYSPTPDYTNVIVNHGIGPSLKVDILLLREWVDRIPGFRELSERFQQHLMHRFCLRYTVIEHGLFTAQMPYHKNVWFLSDRTCLVSEFENLPQEIKKHLTPKVINEQQLLASFTEMLIHEVADPLRRLKPDSVEVATVKTLMLLKPTCLREIDGDYLSTETDIKSVNDVRNRVINGLYSHYIKNGMDPEQLPIRVSEILNLTGGVEQCAARALEEMHPTRVFNLSSFDPYSSNVIFGYYRDV,not soluble
17,MGSDKIHHHHHHMFVRVDISSLPLGKRMAQDIYDFDGHLLISKGIVVQESHLQQLRQRGYEYVYIQEEDEVNENSLNQGIAYLTDKQLPKAFSASVEGMRQMMDKVSSRHMIKLGEVEECIDLVYDHVLQTYNVLKHLQDLRNKDEYTLQHSVSVGILSIKIGQSLGLDADKLKNLGIAGLLHDIGKSMISLDIINKPGPLDDKEFKEIKKHPVYGYQIVNEIKLEDQDIPQAVLQHHEHQDGNGYPLGIRGDRINSFARIIAVADVFDALTSDRAYRPRMSLLQAVDIIIKSSCGQLDPLASRRLLSYVLDITTGEKVILSTGEEATVILKNEVDPARPLVRIGDNFLDLKTNRDVFIKDFAR,not soluble
18,ENVYGYLMKYTNLVTGWQYRFFVLNNEAGLLEYFVNEQSRNQKPRGTLQLAGAVISPSDEDSHTFTVNAASGEQYKLRATDAKERQHWVSRLQICTQHHTEAIGKNN,soluble
19,QVQLQQSGAELMKPGASVKISCKATGYTFSSFWIEWVKQRPGHGLEWIGEILPGSGGTHYNEKFKGKATFTADKSSNTAYMQLSSLTSEDSAVYYCARGHSYYFYDGDYWGQGTSVTVSSASTKGPSVFPLAPSSKSTSGGTAALGCLVKDYFPEPVTVSWNSGALTSGVHTFPAVLQSSGLYSLSSVVTVPSSSLGTQTYICNVNHKPSNTKVDKKVEPK,soluble
20,MKVFTEKIPNIPWEERPEGYTGPVWRYSKNPIIGRNPVPKGARVFNSAVVPYNGEFVGVFRIDHKNTRPFLHFGRSKDGINWEIEPEEIQWVDVNGEPFQPSYAYDPRVVKIEDTYYITFCTDDHGPTIGVGMTKDFKTFVRLPNAYVPFNRNGVLFPRKINGKYVMLNRPSDNGHTPFGDIFLSESPDMIHWGNHRFVLGRSSYNWWENLKIGAGPYPIETSEGWLLIYHGVTLTCNGYVYSFGAALLDLDDPSKVLYRSRYYLLTPEEEYETVGFVPNVVFPCAALCDADTGRVAIYYGAADTHVALAFGYIDEIVDFVKRNSM,not soluble
21,MTVRIAINGFGRIGRNVVRALYESGRRAEITVVAINELADAAGMAHLLKYDTSHGRFAWEVRHEREQLFVGDDVIRILHERTLADLPWRELGVDVVLDCTGVYGNREHGEAHIAAGAKKVLFSHPGSNDLDATVVFGVNQNQLRAEHRIVSNASCTTNCIIPVIKLLDDAYGIESGTVTTIHSAMNDQQVIDAYHSDLRRTRAASQSIIPVDTKLAAGITRIFPQFNDRFEAIAVRVPTINVTAIDLSVTVKKPVKASEVNQLLQKAAQGAFHGIVDYTESPLVSIDFNHDPHSAIVDGTQTRVSGAHLIKTLVWCDNEWGFANRMLDTTLAMAAVGFRLDASASTKL,not soluble
